{"source": "patent US20140294819A1", "about": "(NVIP, published 2014)", "key": {"[1]": {"biological_target": "canine CD20 cyclic (oxidised, disulphide-bonded) peptide SEQ ID NO:2 (canine)", "assay": "ELISA, biotinylated oxidised peptide on streptavidin plate", "details": "scale: fold of the binding to human CD20 peptide"}, "[2]": {"biological_target": "T1, feline CD20 cyclised peptide SEQ ID NO:4 (feline, cyclised by a disulphide bond between the two cysteine residues)", "T1 construct": "also called feline CD20 peptide", "T1 peptide": "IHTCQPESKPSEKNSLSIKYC", "assay": "ELISA on cyclised CD20 peptide"}, "[3]": {"biological_target": "T2, human CD20 cyclic (oxidised) peptide SEQ ID NO:3 (human, disulphide bond between the two cysteine residues; biotinylated)", "T2 construct": "also called H20; human CD20 cyclic peptide", "T2 peptide": "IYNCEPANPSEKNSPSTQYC", "assay": "ELISA on cyclised CD20 peptide"}, "[4]": {"biological_target": "T3, murine CD20 cyclic (oxidised) peptide SEQ ID NO:6 (murine, disulphide bond between the two cysteine residues; biotinylated)", "T3 construct": "also called M20; mouse CD20 peptide", "T3 peptide": "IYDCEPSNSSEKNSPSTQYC", "assay": "ELISA on cyclised CD20 peptide"}, "[5]": {"biological_target": "T4, canine CD20 cyclic (oxidised, disulphide-bonded) peptide SEQ ID NO:2 (canine, disulphide bond between the two cysteine residues (corresponding to positions 167 and 183); N-terminal biotin in the streptavidin-plate assays)", "T4 construct": "Chemically synthesised and oxidised; also called C20; caCD20 peptide", "T4 peptide": "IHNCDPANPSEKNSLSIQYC", "assay": "ELISA on cyclised CD20 peptide"}, "[6]": {"biological_target": "T4, canine CD20 cyclic (oxidised, …)", "assay": "ELISA, CHO supernatant on canine CD20 cyclic peptide, dose response", "text": "This confirms the data with Bly-1 above (and by extension its humanised variant GA101) that this is a further example of a Type II anti-human CD20 monoclonal antibody that also binds to a common epitope on canine CD20, thus validating the use of the structurally constrained shared epitope on canine CD20 as a novel target for monoclonal antibodies."}}, "data": [{"molecule": "B1-H299 (Beckmann Coulter) murine Type II anti-human CD20 monoclonal antibody", "values": [{"measurement": "binding relative to the binding to human CD20 peptide", "setting": "[1]", "result": 0.167}]}, {"molecule": "caninised RF2, HCC isotype (antibody, also called caRF2-C) heavy: EVQLVQSGGGLVKPTESLTISCVISGFSLTSYGVHWVRQSPGKGLEWLGVIWSGGSIDYNAAFISRLSISKDNSKSTVFIRMNSLRADDTAIYYCARGPRKFYYFGMDYWGQGTSVTVSSASTTAPSVFPLAPSCGSQSGSTVALACLVSGYIPEPVTVSWNSVSLTSGVHTFPSVLQSSGLYSLSSMVTVPSSRWPSETFTCNVAHPATNTKVDKPVAKECECKCNCNNCPCPGCGLLGGPSVFIFPPKPKDILVTARTPTVTCVVVDLDPENPEVQISWFVDSKQVQTANTQPREEQSNGTYRVVSVLPIGHQDWLSGKQFKCKVNNKALPSPIEEIISKTPGQAHQPNVYVLPPSRDEMSKNTVTLTCLVKDFFPPEIDVEWQSNGQQEPESKYRMTPPQLDEDGSYFLYSKLSVDKSRWQRGDTFICAVMHEALHNHYTQISLSHSPGK light: DIVMTQTPLSLSVSQEEEASISCRSSQNIVHSNGNTYVEWYLQKPGQSPKLLIYKVSNRFSGVPDRFSGSGSGTDFTLKISRVEAEDAGVYYCFQGSHVPLTFGAGTKLELKRNDAQPAVYLFQPSPDQLHTGSASVVCLLNSFYPKDINVKWKVDGVIQDTGIQESVTEQDKDSTYSLSSTLTMSSTEYLSHELYSCEITHKSLPSTLIKSFQRSECQRVD", "values": [{"measurement": "binding result", "setting": "[2]", "result": "binds"}, {"measurement": "binding result", "setting": "[3]", "result": "binds"}, {"measurement": "binding result", "setting": "[4]", "result": "binds"}, {"measurement": "binding result", "setting": "[5]", "result": "binds"}]}, {"molecule": "recombinant caninised GA101 (full length canine antibody) (antibody, V domains shown, Tested as CHO cell supernatant) VH: EVQLVQSGGEVVKPGGSLKVSCVASGYAFSYSWINWVRQAPGQGMEWVGRIFPGDGDTDYNGKFKGRVTITRDNSKSTAYLELSSLRSEDTAVYYCARNVFDGYWLVYWGQGTLVTVSS VL: DIVMTQTPLSLSVTPEEPASISCRSSKSLLHSNGITYLYWYLQKPGQSPQLLIYQMSNLVSGVPDRFSGSGSGTDFTLKISRVEAEDVGVYYCAQNLELPYTFGAGTKVEIKR", "values": [{"measurement": "binding result", "setting": "[6]", "result": "binds"}]}]}
